Experiment: yeast display, Sf9 membrane polyspecificity reagent, FACS + sequencing; frameworks hold sequencing errors
Procedure, shortened: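 Sorting gates, low and high (top ~1%), were placed on anti-HA fluorescence to track expression and on streptavidin fluorescence to track reagent binding. A clone's polyreactivity label is taken from the gate it came out of. The reagent was 10% biotinylated, detergent-solubilized Sf9 membrane, applied for 1 hour at 4 °C to galactose-induced yeast display cells.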

Row | Sequence | polyreactivity (PSR sort gate)
1 | QVHLVESGGGLVQAGGSLRLRSPASGRTFDDNAMGWYRQAPGKESEMVAGITDNGGGTNYADSVKGRFTISRDNAKNTVYLQMSSLKPEDTAVYYCAADGKLVYVNGYNLYYWGQGTQVTVSS | low polyreactivity
2 | QVQLVESGGGLVQAGGRLRLICAASGRIYGYNTMGWYRQAPGKERDFDAAINSGGRTYYADSVKGRFTISRDNAKNTVYLQMNSLKPEDTAVYYCAAGKGRWISGLYYGARYDYWGQGTQVTVSS | high polyreactivity
3 | QVQLVESGGGLVQAGGSLRLSCAASGRTLQGYAMGWYRQAPGKERELVAAISRGGGSTYADSVKGRFTISRDNAKNTVYLQMNSLKPEDTAVYYCAAVRGIYGGHYFRYEYWGQGTQVTVSS | high polyreactivity
4 | QVQLHESGGGLVQAGGSLRLSCAASGTISVTYNMGWYRQAPGKEREFVAGNSTGATTNYADSVKDRFTISRDNAKNTLYLQMNRLKPEDTAVYYCAAHIYRQDHFYYWGQGTQVTVSS | low polyreactivity
5 | QVQLVESGGGLVQAGGSLRISCAASGITFYANVMGWYRQAPGKARELVAAISARRGSTYYADSVKGRFTISRDNAKNTVYLQMNSLKPEDTAVYYCATREAYRQQGGYGYWGQGTQVTVSS | high polyreactivity
6 | QVQLVESGGGLVQAGGSLRLSCAASGSTFQRYAMGWYRQAPGKERELVAAITIRGTRTYYADSVKGRFTISRDNAKNTVYLQMNSLKPEDTAVYYCAATYYWYGHPSRRYDYWGQGTQVTVSS | high polyreactivity
7 | QVQLVESGVGLVQAGGRLRLSCAASGSIFYYYAMGWYRQAPGKERELVAAISGTGGSTYYADSVKGRFTISRDNAKITFYLQMNSLKPEDTAVYYCAASFYIERHRYIYWGQGTQVTVSS | high polyreactivity
8 | QVQLVESGGGLVQAGGSLRLSCAASGSTFDINAMGWYRQAPGKERELVAAISWGGGSTYYADSVKGRFTISRDNAKNTVYLQMNSLKPEDTAVYYCAKLKGTQPNRYDYWGQGTQVTVSS | low polyreactivity
9 | QVQLVESGGGLVQAGGSLRLSCSASGFIFYLYTMGWYRQAPGKERELVAAITKSGTRTYYADSVKGRFTISRDNAKNTVYLQMNSLKPEDTAVYYCAAEWGSSYRWGMDYWGQGTQVTVSS | high polyreactivity
10 | QVQLVESGGGLVQAGGSLRLSCAASGSTFAYYAMGWYRQAPGKERELVAAITIDGRTSYADSVKGRFTISRDNAKNTVYLQMNSLKAEDTAVYYCAADSSAWLYDYWGQGTQVTVSS | low polyreactivity
11 | QVQLQESGGGLVQAGGSLRQSYAASGYIFPSLAMGWYRQAPGKEREFVAAIGRGSTNNYADSVKGRFTISRDNAIYTAYQQMNSLKPEDTAVYYCGAAASPLTRHLYWGQGTQVTVSS | low polyreactivity
12 | QVQLVESGGGLVQAGGSLRLSCAASGRTFLTNTMGWYRQAPGQEREWVATISNGGRTNYADSVKGRFTISRDNAKNTVYLQMNSLKPEDTAVYYCAKDYRAYHPHWYGSTFGWGQGTQVTVSS | high polyreactivity
13 | QVQLVESGGGLVQAGGSLRLSCAASGSIFGRYAMGWYRQAPGKERELVADISWSGGRTYYADSVKGRFTISRDNAKNTVYLQMNSLKPEDTAVYYCNKVYRWFTRFDYWGQGTQLTVSS | high polyreactivity
14 | QVQLVESGGGLVEAGGSLRLSCADSGRIFLRNAMGWSRQAPGKERELVAAINRGGRTNYADSVKGRFTISRDNAKNTVYLQMNSLKPEDTAVYYCATERESPGYTEYDSWGQGTQVTVSS | low polyreactivity
15 | QVQLVESGGGLVQAGGSLRLSCAASGFTFDYNGLGWYRQAPGKERELVAGIRWSGGSTYYADSVKGRFTISRDNAKNTVYLQMNSLKPEDTAVYYCATSQYGYRSWPGLYYWGQGTQVTVSS | low polyreactivity
16 | QVQLVESVGGLVQARGSLRLSCAASASIFPSYAMGWYIQAPGKERELVAVISWRGGSTYYADSVKGRFTISRDNAKNTVYLQMNRLKPEDTAVYYCAARSWDPKLSTYPFHFNYWGQGTQVTVSS | high polyreactivity
17 | QVQLVESGGGLVQAGGSLRLSCAASGFIFHRYAMGWYRQAPGKERELVAAISRRGGSTYYADSVKGRFTISRDNAKNTVYLQMNSLKPEDTAVYYCARTVGDRTLLESDSWGQGTQVTVSS | high polyreactivity
18 | QFQLVESGGGLVQAGGSLRLSCAASGGIFYTYAMGWYRQAPAKERAFVAAISRSGGRTRYADSVKGRFTISRDNAKNTVYLQMNSLKQEDTAVYYCAARVIGAGLLKYDKWGQGTQVTVSS | high polyreactivity
19 | QVQLVESGGGLVQAGGSLRLSCAASGSIFAYNAMGWYRQAPGKERELVAAITGSGGSTDYADSVKGRFTISRDNAKNTVYLQMNSLKPEDTAVYYCNADWWSEWKLYDYWGQGTQVTVSS | low polyreactivity
20 | QVKLVESGGGLVQAGGSLRLSCAASGRTFGIYAMGWYRQAPGKERELVAAITWSGDSTYYADSVKGRFTISRDNAKNTVYLQINSLKPEDTAVYYCAADYVGVTSVRYDYWGQGTQVTVSS | low polyreactivity
21 | QVQLVESGGGLVQAGGSLRLSCAASGIIFPSYVMGWYRQAPGKERELVARISARGGRTYYADSVKGRFTISRDNAKNTVYLQMNSLKPEDTAVYYCAARWGITTWYDYWGQGTQVTVSS | high polyreactivity
22 | QVQLVESGGGLVQAGGSLRLSCAASGSTFGYNARGWYRQAPGKEREFVARIRSSGSTTYADSVKGRFTISRDNAKNTVYLQMNSLKPEDTAVYYCAARRLYGYSPWVRFGSYDYWGQGTQVTVSS | high polyreactivity

Row | Sequence | polyreactivity (PSR sort gate)
23 | QVQLVESGGGLVQAGGSLRLSCAASGSILRPNAMGWYRQAPGKERELVAAITTTGGSTYYADSVKGRFTISRDNAKNTVYLLMNRLKPEDTAVYYCAAEYVYLYYLYLYYYWGQGTQVTVSS | high polyreactivity
24 | QVQLVESGGGLVQAGGSLRLSCAASGSIFTYYTMAWYRQAPGTERELVAAINGRGHSTYYADSVKGRFTISRDNAKNTVYLQMKSLKSEDTAVYYCKALGSLDGRYGYWGQGTQVTVSS | high polyreactivity
25 | HVQLVESGGGLVQEGGSLRLSCAASGSILNQNAMGWYRQARGKERELVASISWDGDRTYYADSVKGRFTISRDNAKNTVYLQMNSLKPEDTAVYYCAASFYGIDRMGYWGQGTQVTVSS | low polyreactivity
26 | QVQLVESGGGLVQAGGSLRLSCAASGRTFYPNAMGWYRQAPGKERELVARITTRGGSTYYADSVKGRFTISRDNAKNTVYLQMNSLKPEATAVYYCAVDYNSDWAYDYWGQGTQVTVSS | high polyreactivity
27 | QVQLVESGGGLVQAGGSLRLSCAPSGFTFRRNAMGWYRQAPGKERELVAVITSSARTNYADSVKGRFTISRDNAKKTVYLEMNSLKPEDTAVYYCAARYHYGVWRERHGYWGQGTKVTVSS | high polyreactivity
28 | QVQLVESGGGLVQAGGSLRLSCADSGNTFSYYAMGWYRQAPGKEREFVAAIRKSGASTYYADSVKGRFTISRDNAKNTVYLEMNSLKPEDTAVYYCAADGQVSYALGFDYCGQGTQVTVSS | high polyreactivity
29 | QVQLVETGGGLVQARGSLRLSCAASGRIFRRYAMGWYRQAPGKERELVAAISSGGSTDYADSVKGRFTISRDNAKNTVYLQMNSLKPEDTAVYYCARRGPYYNVGLFDSWGQGTQVTVSS | low polyreactivity
30 | QVQLVESRGGLVQAGGSLRLSCAASGFTFYKYAMGCYRQAPGKERELVAAITGSGGSTYYADSVKGRFTISRDNAKNTVYLQMNSLKPEDTAVYYCATRYPTYYGYHKFDYWGQGTQVTVSS | high polyreactivity
31 | QVHLVESGGGLVQAGGSFRLSCAASGSIFDGYSMGWYRQAPGKERELVAAISYRVGRTYYADSVKGRFTISRDNAKNTVYLQMNSLKPEDTAVYYCAAGYYGNGVFEYDYWGQGTQVTVSS | low polyreactivity
32 | QVQLVESGGGLVQAGGSLRLSCAASGRIFSIYTMGWSRQAPGKERELVAAISASDGSTYYADSVKGRFTISRDNAKNTVYLQMNSLKPEDTAVYYCAIDTYPQKVTYGSFAYDYWGEGTQVTVSS | low polyreactivity
33 | QVQLVESGGGLVQAGGSLRLSCAGSGFIFHLYAMGWYRPAPGKERELVAAIRISDGSTYYADSVKGRFTISRDNAKNTVYLLMNSLKPEDTAVYYCNRVRSSYVYVSRFDYWGQGTQVTVSS | high polyreactivity
34 | QVQLVESGGGLVQAGGSLRLSCAASGRTFVRYAMGWYRQAPGKERELVAAISRTGGTTYYADSVKGRFTISRDNAKNTVYLQMNSLKPVDTAVYYCNADPFYKYGYWGQGTQVTVSS | high polyreactivity
35 | QVQLVESGGGLVQAGGSLRLSCAASGSTFERNTMGWYRQAPGKERELVASISRGDGTYADSVKGRFTISRDNAKNTVYLQMNSLKPEDTAVYYCAAVQRESGSDYDYWGQGTQVTVSS | low polyreactivity
36 | QVQLVESGGGLVQAGGSLRLSCAASGSIIFYYAMGWYRQAPGKERDFVAGITYSGGITYYADSVKGRFTISRDNAKNTVYLQMNSMKPEDTAVYFCDYGGGVYQYGYWGQGTQVTVSS | low polyreactivity
37 | QVQLVESGGGLVQAGGSLRLSCAASGNTLSYYTMGWYRQAPGKERELVAAISRGGGSTYYADSVKGRFTISRDNSMNTVYLHMNSLKPEDTAVYYCAAEAYRYAWYDYWGQGTQVTVSS | high polyreactivity
38 | QVQVVESGGGLVQAVGSLRLSCAASGSTLSDNAMGWYRQAPGKERELFAAISESGGSTYYADSVKGRFTISRDNAKNTVYLQMNSQKPEDTAVSYCNAVYLSGPFHVSHDYWGQGTQVTVSA | low polyreactivity
39 | QVQLVESGGGLVQAGGSLRLSWAASGFTLTRNAMGWYTQAPGKERELVAAISWSGGTTYYADSVKGRFTISRDNAKNPVYLQMNSLKRDDTAVYYCNTASWRAQYYYWGQGTRVTVSS | high polyreactivity
40 | QVQLVESAGGLVQAGGSLRLTCAASGRTYFPYAMGLYRQAPGKERELVAAITWSATTTYYADSVKGRFTISRDNAKNTVYLQMISLKPEDTAVYYCNARGDYWGQGTQVTVSS | low polyreactivity
41 | QVQLVESGGGLVQAGGSLRISCAASGSTFYIYAMGWYRPAPGKERELVAAIRRSGGSTYYADSVKGRFTISRDNAKNTVYLQMNSLKPEDTAVYYCATRYLWRPRPYDYWGQGTQVTVSS | high polyreactivity
42 | QVQLVESGGGLVQAGGSLRLICAASGRTLWWYAMGWYRQAPGKESELVAAIDYSDGNTYYADSVKGRFTISRDYAKNTVYLQMNSLKPEDTAVYFCAAEGYYNYGSYYWGQGTQVTVSS | high polyreactivity
43 | QVQLVESGGGLVQAGGSLRLTCAASGRIFGPYVLGWYRQAPGKERELVAAISTSGTSTYYADSVKGRFTISRDNAKNTVYLQMNSLKPEDTAVYYCAKRSGARHRLMDYWGQGTQVTVSS | low polyreactivity
